The record followed here is publication PMC10267580.

The term Kd denotes the constant that tells how readily two partners part at equilibrium.

Bounds are passed on as bounds.

First the molecules themselves.
B1: ELKS1_RBD, Rab-binding domain of ELKS1 (residues 849-922) [rat] / ^Q72L, GTPase domain (residues 8-176), constitutively active mutant [mouse] (parent)
chain 1: RKHLEEVLEMKQEALLAAISEKDANIALLELSSSKKKTQEEVAALKREKDRLVQQLKQQTQNRMKLMADNYEDD
chain 2: GNPLRKFKLVFLGEQSVGKTSLITRFMYDSFDNTYQATIGIDFLSKTMYLEDRTVRLQLWDTAGLERFRSLIPSYIRDSTVAVVVYDITNLNSFQQTSKWIDDVRTERGSDVIIMLVGNKTDLADKRQITIEEGEQRAKELSVMFIETSAKTGYNVKQLFRRVASALPG

One experiment covers variants of B1. In words: ITC. As to conditions: with Rab6B^Q72L.
chain 1 S20A: the Kd was 26 µM.

Still in this experiment, the particulars now being: with ELKS1_RBD.
With chain 2 L4E, the Kd was > 50 µM.
